Experimental data from publication PMC10516938, “Conformational dynamics of cohesin/Scc2 loading complex are regulated by Smc3 acetylation and ATP binding” (Nature Communications, 2023).
Where a chain is given by its changes, count along the chain named.

Legend:
[1] = target: T1, Smc3^QQ W483R R1008I K1004C (S. cerevisiae, UniProt P47037 1-1230, K112Q | K113Q | W483R | K1004C | R1008I); assay: cross-linking; in vivo BMOE cross-link of cysteine pairs in yeast cells arrested in late G1 by non-degradable Sic1(9m); Scc1-PK immunoprecipitated, western blot, band intensities quantified; settings: partners not purified
T1 construct: Smc3, S. cerevisiae; also called smc3-QQ K1004C with R1008I and W483R; source: S. cerevisiae W303, late G1 arrested cells, whole-cell extract
T1 sequence (looked up): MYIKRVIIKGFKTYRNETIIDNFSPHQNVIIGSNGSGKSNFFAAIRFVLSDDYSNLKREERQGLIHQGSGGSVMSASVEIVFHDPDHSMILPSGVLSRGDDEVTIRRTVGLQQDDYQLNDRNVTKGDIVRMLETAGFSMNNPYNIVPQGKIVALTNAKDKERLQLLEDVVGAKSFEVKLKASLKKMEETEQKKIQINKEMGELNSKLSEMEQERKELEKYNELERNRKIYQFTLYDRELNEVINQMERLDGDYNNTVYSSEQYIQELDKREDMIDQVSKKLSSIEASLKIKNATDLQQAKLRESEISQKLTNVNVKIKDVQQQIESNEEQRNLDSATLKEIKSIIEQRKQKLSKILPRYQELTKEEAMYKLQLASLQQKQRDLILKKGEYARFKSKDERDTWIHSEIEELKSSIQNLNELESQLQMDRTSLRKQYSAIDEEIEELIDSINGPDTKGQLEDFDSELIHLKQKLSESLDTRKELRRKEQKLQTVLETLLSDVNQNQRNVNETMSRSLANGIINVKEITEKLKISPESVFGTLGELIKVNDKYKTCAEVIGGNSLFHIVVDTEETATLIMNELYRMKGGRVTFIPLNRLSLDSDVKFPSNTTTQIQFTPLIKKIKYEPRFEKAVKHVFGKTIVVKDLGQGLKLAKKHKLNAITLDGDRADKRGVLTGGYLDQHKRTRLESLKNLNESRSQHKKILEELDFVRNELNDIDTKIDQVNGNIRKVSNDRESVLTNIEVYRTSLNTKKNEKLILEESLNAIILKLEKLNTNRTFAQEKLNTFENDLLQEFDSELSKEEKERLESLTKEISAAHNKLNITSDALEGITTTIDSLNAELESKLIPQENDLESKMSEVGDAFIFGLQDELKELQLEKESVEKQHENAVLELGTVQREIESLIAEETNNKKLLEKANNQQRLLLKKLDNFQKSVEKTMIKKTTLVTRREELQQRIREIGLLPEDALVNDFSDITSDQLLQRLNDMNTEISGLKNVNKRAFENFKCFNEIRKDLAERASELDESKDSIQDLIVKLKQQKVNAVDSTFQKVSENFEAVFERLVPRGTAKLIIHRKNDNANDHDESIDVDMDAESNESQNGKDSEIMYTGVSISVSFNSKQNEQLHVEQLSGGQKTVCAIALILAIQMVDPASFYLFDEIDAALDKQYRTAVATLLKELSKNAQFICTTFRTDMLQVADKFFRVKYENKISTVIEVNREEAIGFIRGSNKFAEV

Smc3^QQ K1004C = target: T2, Smc3^QQ K1004C (S. cerevisiae, UniProt P47037 1-1230, K112Q | K113Q | K1004C); assay: as above; settings: partners not purified
T2 construct: Smc3, S. cerevisiae; source: S. cerevisiae W303, late G1 arrested cells, whole-cell extract
T2 sequence (looked up): T1 sequence (looked up) with R483W, I1008R

- crosslink relative to wild type [1]: ~70%
- crosslinking efficiency relative to wild type (Smc3^QQ K1004C): ~10%
B1: Scc2 D369C (natural protein, S. cerevisiae, UniProt Q04002 1-1493, looked up)
chain: MSYPGKDKNIPGRIIEALEDLPLSYLVPKDGLAALVNAPMRVSLPFDKTIFTSADDGRDVNINVLGTANSTTSSIKNEAEKERLVFKRPSNFTSSANSVDYVPTNFLEGLSPLAQSVLSTHKGLNDSINIEKKSEIVSRPEAKHKLESVTSNAGNLSFNDNSSNKKTKTSTGVTMTQANLAEQYLNDLKNILDIVGFDQNSAEIGNIEYWLQLPNKKFVLTTNCLTKLQMTIKNITDNPQLSNSIEITWLLRLLDVMVCNIKFSKSSLKMGLDDSMLRYIALLSTIVLFNIFLLGKNDSNLHRESYIMEPVNFLSDLIESLKILTIEYGSLKIEFDTFQEALELLPKYIRNGPFLDDNVTAKLVYIFSCLLMNNDIEATTNIQFQSFWDNVKRISSDILVSLFGSFDQQRGFIIEELLSHIEKLPTKRIQKKLRKVGNQNIYITDFTFTLMSMLENINCYSFCNQMKDIAPENIDLLKNEYKKQEEFLFNIVEHINDTILERFFKNPSALRYVIDNFVQDLLLLISSPQWPVTEKILSSLLKRLLSVYSPSMQVSANIETICLQLIGNIGSTIFDIKCSTRDHEDNNLIKMINYPETLPHFFKSFEECIAYNETIKCRRSATRFLWNLRLGTILILEEYTKDAKEQIITVDNELKKILEQIKDGGLGPELENREADFSTIKLDYFSILHAFELLNLYDPYLKLILSLLAKDKIKLRSTAIKCLSMLASKDKVILSNPMVKETIHRRLNDSSASVKDAILDLVSINSSYFEFYQQINNNYNDDSIMVRKHVLRINEKMYDETNDIVTKVYVIARILMKIEDEEDNIIDMARLILLNRWILKVHEVLDQPEKLKEISSSVLLVMSRVAIMNEKCSQLFDLFLNFYLLNKEAHSKEAYDKITHVLTILTDFLVQKIVELNSDDTNEKNSIVDKQNFLNLLAKFADSTVSFLTKDHITALYPYMVSDEKSDFHYYILQVFRCTFEKLANFKQKFLYDLETTLLSRLPKMNVREIDEAMPLIWSVATHRHDTARVAKACSSCLSHLHPYINKANNEEAAIVVDGKLQRLIYLSTGFARFCFPKPSNDKIAFLQEGETLYEHITKCLLVLSKDKITHVIRRVAVKNLTKLCGNHPKLFNSRHVLHLLDKEFQSDQLDIKLVILESLYDLFLLEERKSVRNTGVNSTLSSNSILKKKLLKTNRVEFANDGVCSALATRFLDNILQLCLLRDLKNSLVAIRLLKLILKFGYTNPSHSIPTVIALFASTSQYIRHVAYELLEDLFEKYETLVFSSLSRGVTKAIHYSIHTDEKYYYKHDHFLSLLEKLCGTGKKNGPKFFKVLKRIMQSYLDDITDLTSTNSSVQKSIFVLCTNISNITFVSQYDLVSLLKTIDLTTDRLKEVIMDEIGDNVSSLSVSEEKLSGIILIQLSLQDLGTYLLHLYGLRDDVLLLDIVEESELKNKQLPAKKPDISKFSAQLENIEQYSSNGKLLTYFRKHVKDT
notes: Scc2, S. cerevisiae; source: S. cerevisiae W303, in vivo, whole-cell extract
